Measured values reported in PMC3655264 (2010).
Values belong to the binder of their own block, whether it stands above or below them. Where no end group is shown, it is not given here. [ ]: non-standard residue; d: D form. The star is where a group is joined. MPB‑DPPE = 1,2-dipalmitoyl-sn-glycero-3-phosphoethanolamine-N-[4-(p-maleimidophenyl)butyramide], CCCCCCCCCCCCCCCC(=O)OC[C@H](COP(=O)(O)OCCNC(=O)CCCc1ccc(N2C(=O)CC(*)C2=O)cc1)OC(=O)CCCCCCCCCCCCCCC; pS = N[C@@H](COP(=O)(O)O)C(=O)O

Experiments:
[1] = biological target: T1, AP2 core (recombinant; α trunk, β2 trunk, myc-tagged μ2, σ2) (UniProt P63010 1-592; P84092 1-236; P84092 237-435; P62743 1-142); experiment: SPR; liposomes with 10% PtdIns4,5P2 + 1% CD4P
T1 sequence (chain, as listed by the source, chain 1 of 4): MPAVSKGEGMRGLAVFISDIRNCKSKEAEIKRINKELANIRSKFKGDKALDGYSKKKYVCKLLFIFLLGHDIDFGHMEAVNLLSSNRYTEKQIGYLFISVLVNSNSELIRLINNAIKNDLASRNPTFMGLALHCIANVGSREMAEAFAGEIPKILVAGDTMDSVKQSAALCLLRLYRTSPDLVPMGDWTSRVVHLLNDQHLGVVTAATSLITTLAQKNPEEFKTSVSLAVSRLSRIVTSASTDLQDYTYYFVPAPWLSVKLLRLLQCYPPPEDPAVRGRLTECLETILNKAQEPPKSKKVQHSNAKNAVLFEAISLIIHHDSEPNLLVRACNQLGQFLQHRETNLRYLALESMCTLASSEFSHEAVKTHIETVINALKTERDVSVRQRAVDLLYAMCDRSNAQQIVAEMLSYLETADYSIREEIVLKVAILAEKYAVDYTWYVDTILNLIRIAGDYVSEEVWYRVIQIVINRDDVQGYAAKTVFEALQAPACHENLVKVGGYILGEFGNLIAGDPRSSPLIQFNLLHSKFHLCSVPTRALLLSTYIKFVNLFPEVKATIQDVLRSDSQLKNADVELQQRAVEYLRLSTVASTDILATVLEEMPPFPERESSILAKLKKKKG
T1 sequence (P63010 1-592, chain 2 of 4): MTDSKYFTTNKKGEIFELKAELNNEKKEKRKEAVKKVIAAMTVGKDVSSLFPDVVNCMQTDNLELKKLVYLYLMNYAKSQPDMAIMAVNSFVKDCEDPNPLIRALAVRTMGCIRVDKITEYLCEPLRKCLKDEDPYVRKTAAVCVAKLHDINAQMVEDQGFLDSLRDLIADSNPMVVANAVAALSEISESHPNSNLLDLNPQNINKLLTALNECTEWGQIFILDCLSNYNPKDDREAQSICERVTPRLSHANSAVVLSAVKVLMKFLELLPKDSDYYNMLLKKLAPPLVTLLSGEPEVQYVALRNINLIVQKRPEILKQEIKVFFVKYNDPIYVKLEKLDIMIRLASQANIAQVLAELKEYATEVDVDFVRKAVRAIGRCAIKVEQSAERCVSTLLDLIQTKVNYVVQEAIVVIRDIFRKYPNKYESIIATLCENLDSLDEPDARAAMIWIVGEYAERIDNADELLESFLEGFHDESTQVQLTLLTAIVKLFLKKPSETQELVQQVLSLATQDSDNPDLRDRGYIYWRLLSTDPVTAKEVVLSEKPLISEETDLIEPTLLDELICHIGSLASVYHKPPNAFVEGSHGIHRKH
T1 sequence (P84092 other isoform, or with tags, fused parts or gaps, chain 3 of 4): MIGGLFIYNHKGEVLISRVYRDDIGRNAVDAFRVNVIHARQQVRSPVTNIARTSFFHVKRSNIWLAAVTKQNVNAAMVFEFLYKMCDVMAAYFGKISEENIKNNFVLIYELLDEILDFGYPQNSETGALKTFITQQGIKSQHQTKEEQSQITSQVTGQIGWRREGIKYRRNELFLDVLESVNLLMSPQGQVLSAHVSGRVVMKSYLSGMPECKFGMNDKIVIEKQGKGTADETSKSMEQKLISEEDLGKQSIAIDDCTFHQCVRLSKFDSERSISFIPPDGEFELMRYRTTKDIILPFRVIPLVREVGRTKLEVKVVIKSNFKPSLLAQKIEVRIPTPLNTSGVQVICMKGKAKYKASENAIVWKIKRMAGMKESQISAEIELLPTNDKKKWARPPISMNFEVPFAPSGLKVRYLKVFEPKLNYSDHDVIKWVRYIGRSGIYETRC
T1 sequence (P62743 whole entry, chain 4 of 4): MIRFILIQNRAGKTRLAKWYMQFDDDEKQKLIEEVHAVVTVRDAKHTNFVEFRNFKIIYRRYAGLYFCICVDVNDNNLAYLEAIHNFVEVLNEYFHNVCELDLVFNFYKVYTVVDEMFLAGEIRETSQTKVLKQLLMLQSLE

μ2 KRR>E Core [2] = biological target: T2, μ2 KRR>E Core (Rattus norvegicus (alpha2, mu2), Homo …); experiment: SPR; liposomes with 10% PtdIns4,5P2 + 1% CD4P
T2 sequence (chain, as listed by the source, chain 1 of 4): as the sequence (chain, as listed by the source, chain 1 of 4) above
T2 sequence (chain, as listed by the source, chain 2 of 4): as the sequence (P63010 1-592, chain 2 of 4) above
T2 sequence (chain, as listed by the source, chain 3 of 4): as the sequence (P84092 other isoform, or with tags, fused parts or gaps, chain 3 of 4) above, with K167E, R169E, R170E counted along it
T2 sequence (chain, as listed by the source, chain 4 of 4): as the sequence (P62743 whole entry, chain 4 of 4) above

[3] = biological target: T3, μ2^PIP-Core (AP2 core with the μ2 mutations 5K>E and KRR>E combined) (UniProt P63010 1-592; P84092 1-236; P84092 237-435; P62743 1-142); experiment: SPR; liposomes with 10% PtdIns4,5P2 + 1% CD4P
μ2 5K>E Core [4] = experiment: SPR; liposomes with 10% PtdIns4,5P2 + 1% CD4P
[5] = biological target: T3, μ2^PIP-Core (AP2 core with the μ2 …); experiment: SPR; liposomes with 10% PtdIns4,5P2 + 1% TGN38
[6] = biological target: α^PIP-Core (AP2 core with mutations in the PtdIns4,5P2-binding site on α) (UniProt P63010 1-592; P84092 1-236; P84092 237-435; P62743 1-142); experiment: SPR; liposomes with 10% PtdIns4,5P2 + 1% TGN38
μ2 5K>E Core [7] = experiment: SPR; liposomes with 10% PtdIns4,5P2 + 1% TGN38
[8] = biological target: β2^PIP-Core (AP2 core with β2 Lys5, Lys12, Lys26, Lys27, Lys29, Lys36 mutated to glutamate) (UniProt P63010 1-592; P84092 1-236; P84092 237-435; P62743 1-142, Lys5 to glutamate | Lys12 to glutamate | Lys26 to glutamate | Lys27 to …); experiment: SPR; liposomes with 10% PtdIns4,5P2 + 1% TGN38
Sequence of β2^PIP-Core (AP2 core with β2 Lys5, Lys12, Lys26, Lys27, Lys29, Lys36 mutated to glutamate) (P18484 other isoform, or with tags, fused parts or gaps with the stated changes, chain 1 of 4): as the sequence (chain, as listed by the source, chain 1 of 4) above
Sequence of β2^PIP-Core (AP2 core with β2 Lys5, Lys12, Lys26, Lys27, Lys29, Lys36 mutated to glutamate) (P63010 other isoform, or with tags, fused parts or gaps with the stated changes, chain 2 of 4): as the sequence (P63010 1-592, chain 2 of 4) above, with K5E, K12E, K26E, K27E, K29E, K36E counted along it
Sequence of β2^PIP-Core (AP2 core with β2 Lys5, Lys12, Lys26, Lys27, Lys29, Lys36 mutated to glutamate) (Q96CW1 other isoform, or with tags, fused parts or gaps with the stated changes, chain 3 of 4, further chain): as the sequence (P84092 other isoform, or with tags, fused parts or gaps, chain 3 of 4) above
Sequence of β2^PIP-Core (AP2 core with β2 Lys5, Lys12, Lys26, Lys27, Lys29, Lys36 mutated to glutamate) (B2R4Z4 whole entry, stated change not applied, chain 4 of 4, further chain): as the sequence (P62743 whole entry, chain 4 of 4) above

[9] = biological target: T1, AP2 core (recombinant; α trunk, β2 …); experiment: SPR; liposomes with 10% PtdIns4,5P2 + 1% TGN38
μ2 KRR>E Core [10] = biological target: T2, μ2 KRR>E Core; experiment: SPR; liposomes with 10% PtdIns4,5P2 + 1% TGN38

- Kd [1]: 820 nM
- Kd (μ2 KRR>E Core [2]): 850 nM
- Kd [3]: 2500 nM
- Kd (μ2 5K>E Core [4]): 950 nM
B1: lipid-linked phosphorylated CD4 dileucine sorting signal peptide (CHRRRQAERM(SP)QIKRLLSEK) displayed in liposomes (peptide)
peptide: C(1,2‑dipalmitoyl‑sn‑glycero‑3‑phosphoethanolamine‑N‑(4-(p-maleimidophenyl)butyramide))HRRRQAERM[pS]QIKRLLSEK

- Kd [5]: 6200 nM
- Kd [6]: > 30000 nM
- Kd (μ2 5K>E Core [7]): 520 nM
- Kd [8]: 20000 nM
- Kd [9]: 320 nM
- Kd (μ2 KRR>E Core [10]): 330 nM
B2: lipid-linked TGN38 sorting motif peptide (CKVTRRPKASDYQRL) displayed in liposomes (peptide)
peptide: C(MPB‑DPPE)KVTRRPKASDYQRL
